Results from ChEMBL document CHEMBL2073844, “Pharmacological characterization of the murine and human orthologs of multidrug-resistance protein in transfected human embryonic kidney cells” (Mol Pharmacol, 1997).

Tests used:
[1] = substrate: C[C@]12CC[C@@H]3c4ccc(O)cc4CC[C@H]3[C@@H]1CC[C@@H]2O[C@@H]1O[C@H](C(=O)O)[C@@H](O)[C@H](O)[C@H]1O; experiment: cells, lysate or membranes named
[2] = substrate: CCCCC/C=C\C\C=C/C=C/C=C/[C@@H](SC[C@@H](NC(=O)CC[C@H](N)C(=O)O)C(=O)NCC(=O)O)[C@@H](O)CCCC(=O)O; experiment: cells, lysate or membranes named

B1: Multidrug resistance-associated protein 1 (Mus musculus) (protein)
chain: MALRSFCSADGSDPLWDWNVTWHTSNPDFTKCFQNTVLTWVPCFYLWSCFPLYFFYLSRHDRGYIQMTHLNKTKTALGFFLWIICWADLFYSFWERSQGVLRAPVLLVSPTLLGITMLLATFLIQLERRKGVQSSGIMLTFWLVALLCALAILRSKIISALKKDAHVDVFRDSTFYLYFTLVLVQLVLSCFSDCSPLFSETVHDRNPCPESSASFLSRITFWWITGMMVHGYRQPLESSDLWSLNKEDTSEEVVPVLVNNWKKECDKSRKQPVRIVYAPPKDPSKPKGSSQLDVNEEVEALIVKSPHKDREPSLFKVLYKTFGPYFLMSFLYKALHDLMMFAGPKILELIINFVNDREAPDWQGYFYTALLFVSACLQTLALHQYFHICFVSGMRIKTAVVGAVYRKALLITNAARKSSTVGEIVNLMSVDAQRFMDLATYINMIWSAPLQVILALYFLWLSLGPSVLAGVAVMILMVPLNAVMAMKTKTYQVAHMKSKDNRIKLMNEILNGIKVLKLYAWELAFQDKVMSIRQEELKVLKKSAYLAAVGTFTWVCTPFLVALSTFAVFVTVDERNILDAKKAFVSLALFNILRFPLNILPMVISSIVQASVSLKRLRIFLSHEELEPDSIERRSIKSGEGNSITVKNATFTWARGEPPTLNGITFSIPEGALVAVVGQVGCGKSSLLSALLAEMDKVEGHVTLKGSVAYVPQQAWIQNDSLRENILFGHPLQENYYKAVMEACALLPDLEILPSGDRTEIGEKGVNLSGGQKQRVSLARAVYSNSDIYLFDDPLSAVDAHVGKHIFEKVVGPMGLLKNKTRILVTHGISYLPQVDVIIVMSGGKISEMGSYQELLDRDGAFAEFLRTYANAEQDLASEDDSVSGSGKESKPVENGMLVTDTVGKHLQRHLSNSSSHSGDTSQQHSSIAELQKAGAKEETWKLMEADKAQTGQVQLSVYWNYMKAIGLFITFLSIFLFLCNHVSALASNYWLSLWTDDPPVVNGTQANRNFRLSVYGALGILQGAAIFGYSMAVSIGGIFASRRLHLDLLYNVLRSPMSFFERTPSGNLVNRFSKELDTVDSMIPQVIKMFMGSLFSVIGAVIIILLATPIAAVIIPPLGLVYFFVQRFYVASSRQLKRLESVSRSPVYSHFNETLLGVSVIRAFEEQERFIHQSDLKVDENQKAYYPSIVANRWLAVRLECVGNCIVLFAALFAVISRHSLSAGLVGLSVSYSLQITAYLNWLVRMSSEMETNIVAVERLKEYSETEKEAPWQIQETAPPSTWPHSGRVEFRDYCLRYREDLDLVLKHINVTIEGGEKVGIVGRTGAGKSSLTLGLFRINESAEGEIIIDGVNIAKIGLHNLRFKITIIPQDPVLFSGSLRMNLDPFSQYSDEEVWMALELAHLKGFVSALPDKLNHECAEGGENLSVGQRQLVCLARALLRKTKILVLDEATAAVDLETDNLIQSTIRTQFEDCTVLTIAHRLNTIMDYTRVIVLDKGEVRECGAPSELLQQRGIFYSMAKDAGLV
Q: For B1, which Km [1] is on record?
A: 2.9 µM

Q: What about the Km [2] of the same protein?
A: 0.06 µM
